B1: N-terminally 6×His-tagged full-length CCM3 (natural protein)
chain: not shown
B4: CCM3 (purified, polyhistidine tag removed by TEV protease) (natural protein)
chain: not shown

Tests used:
[1] = biological target: B4; assay: crystal structure
[2] = biological target: GST-CCM2^FL (residues 1–438) (human, UniProt Q9BSQ5 1-438); assay: pull-down
[3] = biological target: B1; assay: pull-down
[4] = biological target: B1; assay: pull-down; remark: listed apart in the source
[5] = biological target: B4; assay: BLI
[6] = biological target: the molecule itself; assay: crystal structure

Chain of GST-CCM2^FL (residues 1–438) (Q9BSQ5 1-438): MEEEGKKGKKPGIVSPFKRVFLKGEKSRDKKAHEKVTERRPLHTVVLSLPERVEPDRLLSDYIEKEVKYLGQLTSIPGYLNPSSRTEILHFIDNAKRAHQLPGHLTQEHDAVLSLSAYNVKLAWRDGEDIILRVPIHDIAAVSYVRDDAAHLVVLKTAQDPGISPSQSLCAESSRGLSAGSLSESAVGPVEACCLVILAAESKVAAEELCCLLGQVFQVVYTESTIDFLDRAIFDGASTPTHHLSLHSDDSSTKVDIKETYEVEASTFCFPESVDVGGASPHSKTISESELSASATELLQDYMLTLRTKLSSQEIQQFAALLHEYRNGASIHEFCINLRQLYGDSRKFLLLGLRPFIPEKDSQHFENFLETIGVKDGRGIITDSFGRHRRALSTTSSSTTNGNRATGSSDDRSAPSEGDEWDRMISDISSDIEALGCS

Ac-STIDFLDRAIFDGAST-NH2 [CCM2 LD–like motif peptide (224–239)]
binding result [1]: binds

B1
Kd [2]: 8.8 ± 1.6 µM

B2: GST-CCM2^PTB-ShortLinker (residues 51–238) (domain or fragment, human, UniProt Q9BSQ5 51-238, looked up)
chain: ERVEPDRLLSDYIEKEVKYLGQLTSIPGYLNPSSRTEILHFIDNAKRAHQLPGHLTQEHDAVLSLSAYNVKLAWRDGEDIILRVPIHDIAAVSYVRDDAAHLVVLKTAQDPGISPSQSLCAESSRGLSAGSLSESAVGPVEACCLVILAAESKVAAEELCCLLGQVFQVVYTESTIDFLDRAIFDGAS
binding result [3]: binds

STIDFLDRAIFDGAST [GST-CCM2-LD–like motif (residues 224–239)]
Kd [4]: 8.6 ± 2.2 µM | Kd [5]: 9.5 ± 2.5 µM

B3: GST-CCM2^PTB-LongLinker (residues 51–251) (domain or fragment, human, UniProt Q9BSQ5 51-251, looked up)
chain: ERVEPDRLLSDYIEKEVKYLGQLTSIPGYLNPSSRTEILHFIDNAKRAHQLPGHLTQEHDAVLSLSAYNVKLAWRDGEDIILRVPIHDIAAVSYVRDDAAHLVVLKTAQDPGISPSQSLCAESSRGLSAGSLSESAVGPVEACCLVILAAESKVAAEELCCLLGQVFQVVYTESTIDFLDRAIFDGASTPTHHLSLHSDDS
binding result [3]: binds

B4
binding result [6]: binds
